Data on 125 sequences can be found in the supplement of paper PMC9112550, “Optimization of the antimicrobial peptide Bac7 by deep mutational scanning” (BMC Biology, 2022).
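Note: peptides expressed intracellularly from a pBAD plasmid library in pooled LB shake-flask culture, induced with 0.3% L-arabinose, DNA abundance read by NGS, three biological replicates, DESeq2 with apeglm shrinkage.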

The subject of the data set is Escherichia coli TOP10. Description: shrunken log2 fold change of peptide-encoding DNA abundance (4.5 h post-induction vs induction); higher = less antimicrobial activity (less host growth inhibition). Conditions: time post-induction: 4.5 h; library: site-saturation at positions 5, 18, 19, 20.
For RRIRVRPPRLPRPRPRPDHFPRP, the “shrunken log2 fold change” value was -0.0417.
The result for RRIRDRPPRLPRPRPRPRGPPRP reads 0.366; that for RRIRCRPPRLPRPRPRPVVMPRP, -0.138; that for RRIRPRPPRLPRPRPRPSDQPRP, 0.029.
The result for RRIRTRPPRLPRPRPRPQGIPRP reads 0.0112; that for RRIRWRPPRLPRPRPRPWQFPRP, 0.00487.
The result for RRIRDRPPRLPRPRPRPAIYPRP reads 0.00069; that for RRIRPRPPRLPRPRPRPMGGPRP, 0.113; that for RRIRQRPPRLPRPRPRPTCSPRP, -0.353.
Turning to RRIRERPPRLPRPRPRPKLEPRP, the “shrunken log2 fold change” value was -0.0117.
The result for RRIRYRPPRLPRPRPRPVHAPRP reads -0.13.
The result for RRIRKRPPRLPRPRPRPHVTPRP reads -0.0241.
Regarding RRIRMRPPRLPRPRPRPRLAPRP, the “shrunken log2 fold change” value came to 2.7.
For the sequence RRIRVRPPRLPRPRPRPTMMPRP, the “shrunken log2 fold change” value was -0.494.
The result for RRIRDRPPRLPRPRPRPDKPPRP reads 0.00451; that for RRIRHRPPRLPRPRPRPCVDPRP, -0.184.
Take RRIRARPPRLPRPRPRPCYIPRP: the “shrunken log2 fold change” value was -0.607.
The result for RRIRNRPPRLPRPRPRPAFMPRP reads 0.0417.
The result for RRIRNRPPRLPRPRPRPQGLPRP reads -0.109.
For the sequence RRIRNRPPRLPRPRPRPGKGPRP, the “shrunken log2 fold change” value was found to be 0.101.
With RRIRYRPPRLPRPRPRPMHMPRP, the “shrunken log2 fold change” value was -0.113.
Take RRIRNRPPRLPRPRPRPNDWPRP: the “shrunken log2 fold change” value came to 0.0943.
Take RRIRVRPPRLPRPRPRPHDLPRP: the “shrunken log2 fold change” value was -0.226.
The result for RRIRHRPPRLPRPRPRPNHKPRP reads -0.973; that for RRIRLRPPRLPRPRPRPKAWPRP, -0.0115; that for RRIRHRPPRLPRPRPRPTSIPRP, 0.0484.
The result for RRIRMRPPRLPRPRPRPPWPPRP reads 1.1; that for RRIRNRPPRLPRPRPRPSWRPRP, 0.0128; that for RRIRYRPPRLPRPRPRPDPGPRP, -0.124.
The result for RRIRPRPPRLPRPRPRPNPTPRP reads 0.0721; that for RRIRIRPPRLPRPRPRPIKPPRP, -0.254.
With RRIRHRPPRLPRPRPRPYNAPRP, the “shrunken log2 fold change” value is -0.00175.
The result for RRIRLRPPRLPRPRPRPFYMPRP reads -0.0545; that for RRIRMRPPRLPRPRPRPKCNPRP, 0.159.
The result for RRIRRRPPRLPRPRPRPRSWPRP reads 0.648; that for RRIRLRPPRLPRPRPRPPGFPRP, 0.278; that for RRIRTRPPRLPRPRPRPLIFPRP, -0.446.
The result for RRIRMRPPRLPRPRPRPVTSPRP reads -0.0914; that for RRIRWRPPRLPRPRPRPKKLPRP, -0.0343; that for RRIRLRPPRLPRPRPRPFKKPRP, 0.0344.
In the case of RRIRSRPPRLPRPRPRPEMYPRP, the “shrunken log2 fold change” value is -0.0223.
The result for RRIRHRPPRLPRPRPRPIICPRP reads -0.168.
The result for RRIRCRPPRLPRPRPRPVDFPRP reads -0.252.
With RRIRYRPPRLPRPRPRPHVWPRP, the “shrunken log2 fold change” value was 0.0773.
The result for RRIRARPPRLPRPRPRPFCEPRP reads 0.303; that for RRIRLRPPRLPRPRPRPHARPRP, 0.416.
For RRIRNRPPRLPRPRPRPDKSPRP, the “shrunken log2 fold change” value is -0.193.
The result for RRIRPRPPRLPRPRPRPSMAPRP reads -0.0637.
Turning to RRIRDRPPRLPRPRPRPYKVPRP, the “shrunken log2 fold change” value is -0.687.
On to RRIRIRPPRLPRPRPRPDVTPRP, for which the “shrunken log2 fold change” value was -0.0322.
The result for RRIRERPPRLPRPRPRPATGPRP reads -0.0619; that for RRIRFRPPRLPRPRPRPNYAPRP, -0.127.
The result for RRIRVRPPRLPRPRPRPWIHPRP reads -0.349.
The result for RRIRPRPPRLPRPRPRPQMQPRP reads -0.254; that for RRIRARPPRLPRPRPRPTGLPRP, 0.298.
RRIRTRPPRLPRPRPRPSHHPRP: the “shrunken log2 fold change” value is -0.646.
The result for RRIRWRPPRLPRPRPRPPEWPRP reads 0.36.
The result for RRIRGRPPRLPRPRPRPAEHPRP reads 0.352.
The result for RRIRYRPPRLPRPRPRPQCAPRP reads -0.247.
With RRIRRRPPRLPRPRPRPTTGPRP, the “shrunken log2 fold change” value was -0.00353.
The result for RRIRWRPPRLPRPRPRPDVNPRP reads -0.125.
The result for RRIRERPPRLPRPRPRPIYGPRP reads 0.0231; that for RRIRKRPPRLPRPRPRPEIKPRP, 0.977.
RRIRRRPPRLPRPRPRPHFKPRP: the “shrunken log2 fold change” value was -0.0168.
The result for RRIRFRPPRLPRPRPRPRSEPRP reads 0.11; that for RRIRIRPPRLPRPRPRPQKFPRP, -0.0902; that for RRIRCRPPRLPRPRPRPSYHPRP, 0.811.
The result for RRIRRRPPRLPRPRPRPMMCPRP reads 0.102; that for RRIRIRPPRLPRPRPRPDKWPRP, -0.318.
The result for RRIRKRPPRLPRPRPRPDLKPRP reads 0.131.
RRIRCRPPRLPRPRPRPYGWPRP: the “shrunken log2 fold change” value was -0.27.
The result for RRIRTRPPRLPRPRPRPKDEPRP reads -0.0319.
Regarding RRIRSRPPRLPRPRPRPGNLPRP, the “shrunken log2 fold change” value was -0.0533.
The result for RRIRYRPPRLPRPRPRPNHSPRP reads -0.498; that for RRIRIRPPRLPRPRPRPTHIPRP, -0.495; that for RRIRARPPRLPRPRPRPPWCPRP, 0.373.
The result for RRIRNRPPRLPRPRPRPYMGPRP reads -1.97; that for RRIRKRPPRLPRPRPRPPYEPRP, 0.0908; that for RRIRYRPPRLPRPRPRPFREPRP, -0.35.
Regarding RRIRFRPPRLPRPRPRPPSEPRP, the “shrunken log2 fold change” value amounted to 0.28.
With RRIRWRPPRLPRPRPRPSALPRP, the “shrunken log2 fold change” value is 0.678.
The result for RRIRHRPPRLPRPRPRPWPMPRP reads 0.0159; that for RRIRIRPPRLPRPRPRPDKAPRP, -0.00957.
As to RRIRQRPPRLPRPRPRPYKPPRP, the “shrunken log2 fold change” value is 0.0291.
In the case of RRIRDRPPRLPRPRPRPNIRPRP, the “shrunken log2 fold change” value was -0.0481.
The result for RRIRKRPPRLPRPRPRPAEVPRP reads 0.171; that for RRIRTRPPRLPRPRPRPGLYPRP, 0.194.
The result for RRIRHRPPRLPRPRPRPHMMPRP reads -0.321.
The result for RRIRNRPPRLPRPRPRPDLDPRP reads 0.0497.
For RRIRYRPPRLPRPRPRPNKPPRP, the “shrunken log2 fold change” value was -0.18.
In the case of RRIRARPPRLPRPRPRPCVVPRP, the “shrunken log2 fold change” value turned out to be 0.198.
The result for RRIRKRPPRLPRPRPRPEVYPRP reads -0.0138; that for RRIRHRPPRLPRPRPRPPVTPRP, -0.0642.
The result for RRIRGRPPRLPRPRPRPVPAPRP reads 1; that for RRIRDRPPRLPRPRPRPTPTPRP, 0.194; that for RRIRKRPPRLPRPRPRPMIDPRP, 0.21.
The result for RRIRGRPPRLPRPRPRPVSAPRP reads 0.676; that for RRIRIRPPRLPRPRPRPFQLPRP, 0.0333.
As for RRIRQRPPRLPRPRPRPNGHPRP, the “shrunken log2 fold change” value was -0.104.
The result for RRIRIRPPRLPRPRPRPMDVPRP reads -0.361; that for RRIRQRPPRLPRPRPRPSLFPRP, -0.11.
For RRIRVRPPRLPRPRPRPFVNPRP, the “shrunken log2 fold change” value is -0.0619.
The result for RRIRQRPPRLPRPRPRPTHFPRP reads -0.0245.
Turning to RRIRYRPPRLPRPRPRPIFHPRP, the “shrunken log2 fold change” value is -0.456.
The result for RRIRNRPPRLPRPRPRPAKMPRP reads -0.0794; that for RRIRKRPPRLPRPRPRPIEPPRP, 0.0245; that for RRIRRRPPRLPRPRPRPWIMPRP, 0.0607.
The result for RRIRKRPPRLPRPRPRPACDPRP reads 0.861; that for RRIRCRPPRLPRPRPRPHVIPRP, -0.245; that for RRIRERPPRLPRPRPRPDHEPRP, -0.0943.
The result for RRIRDRPPRLPRPRPRPFCCPRP reads 0.26; that for RRIRFRPPRLPRPRPRPNWNPRP, -0.42; that for RRIRNRPPRLPRPRPRPHKTPRP, -0.22.
As to RRIRIRPPRLPRPRPRPFDPPRP, the “shrunken log2 fold change” value was -0.438.
The result for RRIRKRPPRLPRPRPRPQDPPRP reads 1.55; that for RRIRKRPPRLPRPRPRPIMIPRP, -0.0532; that for RRIRLRPPRLPRPRPRPMSHPRP, 0.0207.
In the case of RRIRERPPRLPRPRPRPGMQPRP, the “shrunken log2 fold change” value is -0.328.
The result for RRIRFRPPRLPRPRPRPRDVPRP reads 0.728; that for RRIRCRPPRLPRPRPRPFDIPRP, -1.4.
The result for RRIRVRPPRLPRPRPRPWVIPRP reads -0.43; that for RRIRMRPPRLPRPRPRPWFYPRP, -0.418.
The result for RRIRWRPPRLPRPRPRPVDDPRP reads -0.0142; that for RRIRWRPPRLPRPRPRPMLEPRP, -0.0685; that for RRIRFRPPRLPRPRPRPQHWPRP, 0.0645.
